Results taken from the nanobody polyreactivity screen of Harvey et al. (2022).

Assay: yeast display, Sf9 membrane polyspecificity reagent, FACS + sequencing; frameworks hold sequencing errors
How it was run: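 Genes from sorted yeast were amplified by colony PCR, read by MiSeq 2 × 250 sequencing and filtered on CDR length. These cells carried a synthetic nanobody library in Saccharomyces cerevisiae BJ5465 and were sorted by FACS into low and high (top ~1%) gates on anti-HA and streptavidin fluorescence. Polyreactivity is labelled according to the gate of origin.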

Row | Sequence | polyreactivity (PSR sort gate)
1 | QVQLVESGGGLVQAGGSLRLICADSGSIFVYYLMVWYRQAPGKEREFVAAISYGGGSTYYADSVKGRFTISRDNAKNTVYLQMNSLKPEDTAVYYCNTDIYSDYVCEEYEYWGQGTQVTLSS | high polyreactivity
2 | QVQLVESGGGLVQAGGSLRLICAGSGRIFYRYPMGWYRQAPGKERELVAAITVRGGSTYYADSVKGRFTISRDNAKNTVYVQRHSLKPEDTALYYCATGLGVLYDYWYEVEFDYWGQGTQVSVSS | low polyreactivity
3 | QVQLVESGGGLVQAGGSLRLICASSGRIFAGYAMGWYRQAPGKERELVAAIRDSGRTYYAVSVKGRFTISRDNAKNTVYLQMNSLKPEVTAVSYCAADAHSSYSPFRWYDYWGQGTQVTVSS | low polyreactivity
4 | QVQLVESGGGLVQAGGSLRLICDASGRIFGDNAMGWYRQAPGKEREFVATINGSGGSTYYADSVKGRFTISRDNAKNTVYLQMNSLKPEVTAVYYCFVQQNYGYDYWGQGTQVTVSS | low polyreactivity
5 | QVQLVESGGGLVQAGGSLRLICDASGRTFTDNAMGLYRQAPGKERELVAAISSSGDFYAESVKGRFTISRDNAQNTVYLQMNSLKPEDTAVYYCAARVWRYYYQSRFYYWGQGTQVTVSS | high polyreactivity
6 | QVQLVESGGGLVQAGGSLRLICDASGRTFVRYAMGWYRQAPGKERELVAAITRSASTYYADSVKGRFTISRDNAKNTVYLQMNSLKPEDTAVYYCNAGRKYWFGRAGGYDYWGQGTQVTVSS | high polyreactivity
7 | QVQLVESGGGLVQAGGSLRLICDASGSIFGDYVMGWYSPAPGKERELVAAITSATSTYYADSVKGRFTISRDNAKNTVYLQMNSLKPEDTAVYYCKADATYPLWPNIWYDYDYWGQGTQVTVSS | low polyreactivity
8 | QVQLVESGGGLVQAGGSLRLICSASGSIIEHYAMGWYRQAPGKERELVAAISWCGASTYYADSVKGRFTISRDNAKNTVYLQWYSLKPEDTAVYYCAAVFYGGGKRYYYWGQGTQVTVSS | high polyreactivity
9 | QVQLVESGGGLVQAGGSLRLICSASGTTFPVYVMGRYRHAPGKERELVAAISRSGTSTYYADSVKGRFTISRDNAKNTVYLQMNSLKPEDTAVYYCAAQLYGHGEDYWGQGTQVTVSS | high polyreactivity
10 | QVQLVESGGGLVQAGGSLRLIFAASGFIFETYAMGWYRQAPGKERELVAAISRGASTYYADSVKGRFTISRDNAKNTVYLQMNSLKPEDTAVYDCAAKRLSWHRYGYWGQGTQVTVSS | low polyreactivity
11 | QVQLVESGGGLVQAGGSLRLISAASGIIFWGNAMGWYRQPPGNERELVATITGRGGSTYYADSVKGRFTISRDYAKNTVYLQMNSLKPEDTAVYYCAASGGRPILFYDVWGGIVRHEYWGQGTQVTVSS | low polyreactivity
12 | QVQLVESGGGLVQAGGSLRLISAASGINFTGYAMGWYRQAPGKERELVAAISYSAASTYYADSVKGRFTISRDTAKNTVYLQMNSLKPEDTAVYYCAATAPSRSYPFRYYYWGQGTQVTVSS | high polyreactivity
13 | QVQLVESGGGLVQAGGSLRLISAASGRTFYSNAMGWYRQAPGKERELVAAITKSGGRTYYADSVKGRFTISRDNAKNTDYLQMNSLIPEDTAVYYCKALVAAYYGYDYWGQGTQVTVSS | high polyreactivity
14 | QVQLVESGGGLVQAGGSLRLISAASGSIFPAYDMGLYRQAPGKEREFLPAIERGGSTYYADSVKGRYTISRDNAKNTVYLPMNSLKPVDTAVFYCATDCPEYPNYISSAGFDYWGQGTQVNVSS | low polyreactivity
15 | QVQLVESGGGLVQAGGSLRLISAASGSTFRHYALGWNRQAPGKERELVAAISSTGGSTYYADSVKGRFTISRDNAKNTVYLQMNSLKPEDTAVFYCAARRLYWGQGTQVTVSS | high polyreactivity
16 | QVQLVESGGGLVQAGGSLRLIWAASGFTFWLNAMGWYRQAPGKERELVAAINWSGGSTYYADSVKGRFTISRDNAKNTVYLLMNILKPEDTAVYYCNRRGQYTFWPIHEYWGQGTQVTVSS | high polyreactivity
17 | QVQLVESGGGLVQAGGSLRLKCAASGSTFRPYAMGWYRQAPGKERELVARITGSGDSTYYADSVKGRFTISRDNAKITVYLQINSLKPEDNAVYYCAREFDYSLSGFDYWGQGTQVTVSS | low polyreactivity
18 | QVQLVESGGGLVQAGGSLRLLCADSGFTFEYYAMGWYRQAPGKERELVAAITSGGSTNYADSVKGRFTISRDNAKNTVYVQMNSLKPEDTAVYYCAAGYWYRYAALRYDHWGQGTQVTVSS | low polyreactivity
19 | QVQLVESGGGLVQAGGSLRLRCAACGSIFTQYVMGWYRKAPGKERELVAAITWSGGNTYYADSVKGRFTISRDNAKNTVYLQMNSLKPEDTAVYYCAAYKPYSKYNDWGQGTQVTVSS | high polyreactivity
20 | QVQLVESGGGLVQAGGSLRLRCAASGFTFRLYAMGGDRQAPGKERELVATITQRGGRTYYADSVKGRFTISRDNAKNTVYLQMNSLKPEDTAVYYCAATWSLTTGTKFDYWGQGTQVTVSS | high polyreactivity
21 | QVQLVESGGGLVQAGGSLRLRCAASGFTFYLYAMGWYRQAPGKERELVAAITWSGGRTYYADSVKGRFTNSRDNAKNTVYLQMNSLKPEYTAVYYCAAVVRKQLSAPSDYWGQGTQVTVSS | high polyreactivity
22 | QVQLVESGGGLVQAGGSLRLRCAASGGTFYYYAMGWYRQAPGKERELVAAISTSGTSTYYADSVKGRFTISRDNAKNTVYLQMNSLKPEDTAVYDCAARGLRVSSRGYYWGQGTQVTVSS | high polyreactivity

Row | Sequence | polyreactivity (PSR sort gate)
23 | QVQLVESGGGLVQAGGSLRLRCAASGHIFGRYAMGWYRQAPGKERELVAAFTSGGTTYYADSVKGRFTISRDNAKNTVYLQMNSLKPEDTAVYYCAAKFQLKRYSSPFIWYDSWGQGTQVTVSS | high polyreactivity
24 | QVQLVESGGGLVQAGGSLRLRCAASGIIFGTNAMGWYRQAPGKERELVAGITSSGDSTYYADSVKGRFTISRDNAKNTVYLQMNSLKAEDTAVYYCARDIRTREFDSWGQGTQVTVSS | low polyreactivity
25 | QVQLVESGGGLVQAGGSLRLRCAASGISFRRNVMGWCRQAPGKERELVARISRAGSTKYADSVKGRFTISRDTAKNTVYLQMTSLKPEDTAVYYCNKVTRRNGQPYDYWGQGTQVTVSS | high polyreactivity
26 | QVQLVESGGGLVQAGGSLRLRCAASGMGWYRQAPGKEWEKVATITWSDGITYADSVKGRFTISRDNAKNTVYLQMNSLKPEDTAVYYCNADWDQTGTVFYSFGLREMDSWGQCTQVTVSS | low polyreactivity
27 | QVQLVESGGGLVQAGGSLRLRCAASGRIFPWYAMGWYRHAPGGEREFVAVISRSGGSTYYADSVKGRFTISRDNAKNTVYLQMNSLKPEDTAVYYCASDGKFEYDYWGQGTQVTVSS | low polyreactivity
28 | QVQLVESGGGLVQAGGSLRLRCAASGRIFRGYAMGWYRQAPGKERELVAAISWSGGSSTYADSVKGRFTISLDNAKNTVYLQMNSLKPEDTAVYDCNRVSRGRGRLTVDYQAEGYDSWGQGTQVTVSS | high polyreactivity
29 | QVQLVESGGGLVQAGGSLRLRCAASGRIFYFNAMGWYRQAPGKEREFVASINSIGDSTYYADSVKGRFTISRDTAKNTVYLQMNSLKPEDTAVYYCNADHGVINYRLDYWGQGTQVTVSS | low polyreactivity
30 | QVQLVESGGGLVQAGGSLRLRCAASGRILVRYAMGWYRQAPGKERELVAAISRGGSTTYADSVKGRFTISRDNAKNTVYLQMNSLKPEDTAVYYCAAGRYPYNRDYWGQGTQVTVSS | high polyreactivity
31 | QVQLVESGGGLVQAGGSLRLRCAASGRNIHWYAMGWSRQAPGKEMELVAAITGSGGRTSYADSVKGRFTISRDFAKNTVYLQMNSLKPQDTAVYYCAKRATWYTVPREGYWGQGTQVTVSS | high polyreactivity
32 | QVQLVESGGGLVQAGGSLRLRCAASGRTFGPYTMGWYRQAPGKEREFVAAINSSGSRTYYADSVKGRFTISRDNAKNTVYLQMNSLKPEDTAVYYCAAEAKWYYSWSYPYEGDYWGQGTQVTVSS | low polyreactivity
33 | QVQLVESGGGLVQAGGSLRLRCAASGRTFIVYAMGWYRQAPGKERELVARISSGSRTSYADSVKGRFTISRDNAKNTVYLQMNSLKPEDTAVYYCAKSRVIKYEFDYWGQGTEVTVSS | low polyreactivity
34 | QVQLVESGGGLVQAGGSLRLRCAASGRTIGPYAMGWYRQEPRKERELVAAISWSGGSTYYADSVKGRFTISRDNAKNTVYLQMNSLKPVDTAVYFCAAVYYSHVYYWGQGTQVTVSS | high polyreactivity
35 | QVQLVESGGGLVQAGGSLRLRCAASGRTVVGTTMGWYRQAPGKEREVVAAISSGGRTYYADSVKGRFTISRDNAKNTVYLQMNSLIPVDTAVYYCAARRRGKVVPTSQFDYWGQGTQVTVSS | high polyreactivity
36 | QVQLVESGGGLVQAGGSLRLRCAASGSIFFYYVMGLSRQAPGKERELVAVISSGGGSTYYADSVKGRFTISRDNAKYTVYLQMNSLKPEDTAVYYCAAGTYYKFYYWGQGTQVTESS | high polyreactivity
37 | QVQLVESGGGLVQAGGSLRLRCAASGSIFGAYAMAWYRQAPGKERELVAAINSDISTNYADSVKGRFTISRDNAKNTVYFQMTSVKPEDTAVYYCGVDWPRIYLRYNYWGQGTAVTVSS | low polyreactivity
38 | QVQLVESGGGLVQAGGSLRLRCAASGSIFNFYAMGGYRQAPGKERELVATINWSGGRTYYADSVKGRFTISRDNATNTVYLQMNSLNTEDTAVYYCAASRYFRGDYWGQGTQGTVSS | high polyreactivity
39 | QVQLVESGGGLVQAGGSLRLRCAASGSIFNSYAMGWYRQAPGKERELVAAISIRGTRTYYADSVKGRFTISRDNAKNTVYLQMNSLKPEDTAVYYCAADASYTEGMDYWGQGTQVTVSS | high polyreactivity
40 | QVQLVESGGGLVQAGGSLRLRCAASGSIFYGYAMGWYRQAPGKESEFVAAITTTGGSTYYADSVKGRFTISRDNSKYTVYLQMNSLKPEDTAVYYCATSGDRLVWGQVTQVTVSS | low polyreactivity
41 | QVQLVESGGGLVQAGGSLRLRCAASGSTFAWYAMGWYRQAPGKESELVAAITQNGGRTYYADSVKGRFTISRDNAKNTVYLQMNSLKPEDTAVYYCANAFIQPGYKYDSWGQVTQVTVSS | high polyreactivity
42 | QVQLVESGGGLVQAGGSLRLRCAASGSTFAYYAMGWYRQAPGKERELVAAISSGGSTYYADSVKGRFTISRDNAKNTVYIQMNSLKAEETAVYYCNKLRVVKFKRYEFGEWGQGTQVTVSS | low polyreactivity
43 | QVQLVESGGGLVQAGGSLRLRCAASGSTFVPYAMGWYRQAPWKERELVAAITWNGGRTYYADSVKGRYTISRDNANNTVYLQMNSLKPEDTAVYFCNGLSYTWACYYWGQGTRVTVSS | high polyreactivity
